We go through 30 sequences from the supplement of paper PMC9170038.

The data set relates to MS2 coat protein. In words: apparent KD of MS2 coat protein; designed switch direction (-1 OFF switch, 1 ON switch): -1; higher = weaker reporter binding. In short, it runs like this: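 Designed RNA switches with common flanks were made on Illumina chips by stalled E. coli RNA polymerase. Titration with SNAP-549-labelled MS2 coat protein doubled from 0.7 or 1.5 nM up to 3 µM. Apparent KD is each design's median over clusters after curve-fitting normalised fluorescence.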

Where [1] appears, read: input ligand: microRNA oligo, concentration not stated.
The mark [2] stands for this setting: Eterna round: R95, input ligand: FMN 200 uM.
[3] abbreviates: Eterna round: R95, input ligand: microRNA oligo, concentration not stated.
Where [4] appears, read: Eterna round: R95, input ligand: none.

For “AAAUCGUGAGGAUAUCCAAUAUAUGACAUGAGGAUCACCCAUGUUUCCACUCGUACCUCCGGAGAAGGCACAGUUA [Ex5 #73] (Eterna round: R97, puzzle: Exclusion 5)”, the “apparent KD of MS2 coat protein” value (input ligand: FMN 200 uM) is 24.7 nM and the “apparent KD of MS2 coat protein” value (input ligand: none) came out at 26.3 nM.
Take “AAAUGAAAGGCAGGAUAUCGUACUGAUCUUUGUCGAGAAGGGCCAGGGUCCCUCGGCUACAUGAGGAUCACCCAUGUUAAAAGA [Onabele] (Eterna round: R96, puzzle: Exclusion NG 1)”: the “apparent KD of MS2 coat protein” value reads like this: (input ligand: FMN 200 uM) 56.9 nM; under setting [1], 29.4 nM; (input ligand: none) 36.2 nM.
For “AAAUGCGAGCGAGGAUAUCAGAAAGGAAGUGUAUGAGAAGGCGCACCGCGGGUAUCCGGACAUGAGGAUCACCCAUGUAGGCUC [PowerStrip EXNG 1.28] (Eterna round: R96, puzzle: Exclusion NG 1)”, the “apparent KD of MS2 coat protein” value was found to be 23.2 nM (input ligand: FMN 200 uM), 17.8 nM under setting [1] and 29.5 nM (input ligand: none).
Consider “AACAAGGGUUAAUGUACGGACAUGAGGAUCACCCAUGUCCACGGAUGUGUGGAGAGGUCCUCUUUGGCUCGUCUUAU [Cac Sensor turn off var1 sub10] (Eterna round: R97, puzzle: Sensor, turn-off variant 1)”, for which the “apparent KD of MS2 coat protein” value turned out to be 47.8 nM (input ligand: FMN 200 uM) and 87.8 nM (input ligand: none).
Take “AACAGUCUAGAGGAUAUGUGCGAUUAAUAUCGUGCAGAAGGCUGGACAUGAGGAUCACCCAUGUAAAUACUACC [Omei Ex6 A16] (Eterna round: R97, puzzle: Exclusion 6)”: the “apparent KD of MS2 coat protein” value worked out at 79.4 nM (input ligand: FMN 200 uM) and 34 nM (input ligand: none).
For the sequence “AACAUGUUAGGAUAUGGUCCUGUGCCACAUGGAGGUUUAGGUUAGAAGGGACAUGAGGAUCACCCAUGUUAAAU [Eternabot (L2) Solution 39] (Eterna round: R97, puzzle: Exclusion 4)”, the “apparent KD of MS2 coat protein” value runs as follows: (input ligand: FMN 200 uM) 168 nM; (input ligand: none) 183 nM.
As to “AACCAGCGAGGAUAUGCUUGCGCGUGUUCUAGUUGUAAUCGACUUGAGGAUCACCCAAGUAGAAGGCGCUGCCG [EX2 #50] (Eterna round: R97, puzzle: Exclusion 2)”, the “apparent KD of MS2 coat protein” value is, setting by setting: (input ligand: FMN 200 uM) 103 nM; (input ligand: none) 119 nM.
With “AACCGGCGGACCGAAGCUUUUUGCUUGUUUUAUACUACUACAUGAGGAUCACCCAUGUCGUGGUGGUCUGUUGUAGA [Bibe] (puzzle: Sensor v3, turn-off variant 2)”, the “apparent KD of MS2 coat protein” value runs as follows: under setting [2], 38.9 nM; under setting [3], 15.7 nM; under setting [4], 33.2 nM.
Regarding “AACCUGAGGCUUUGCUUUAGGUAUACAUGAGGAUCACCCAUGUAGGAUAUGGUAGGCUUUGCUUACCAGAAGGACAUGUUAAUU [JL ENG3 1.10] (Eterna round: R96, puzzle: Exclusion NG 3)”, the “apparent KD of MS2 coat protein” value runs as follows: (input ligand: FMN 200 uM) 136 nM; under setting [1], 41.7 nM; (input ligand: none) 44.2 nM.
Regarding “AACGUCUAGGUAGGAUAUCCACCAACAGGUGGAAGGAUAUGGAAACAGAAGGUUCGCCAACAGGCGGAGAAGGACCUACGCGUA [pwkr exNG2 2xF7 2xFMN.25] (Eterna round: R96, puzzle: Exclusion NG 2)”, the “apparent KD of MS2 coat protein” value reads like this: (input ligand: FMN 200 uM) 50.4 nM; under setting [1], 162 nM; (input ligand: none) 387 nM.
For “AAGAAACAUGAGGAUCACCCAUGUGAGGAUAUGACUAAGAAAAGAAAAGAAAGAAGAAUCAGAAGGCACAAAGG [salish99-ex1_r3_053] (puzzle: Exclusion 1)”, the “apparent KD of MS2 coat protein” value runs as follows: under setting [2], 29.7 nM; under setting [3], 43 nM; under setting [4], 49.3 nM.
For “AAGAAACAUGAGGAUCACCCAUGUGAGGAUAUGAGUAAGAAAAGAAAAGAAAGAAGAAUCAGAAGGCACAAAGG [salish99-ex1_r3_048] (puzzle: Exclusion 1)”, in that order: 55.2 nM, 38.3 nM and 38.3 nM.
As to “AAGAAACAUGAGGAUCACCCAUGUGAGGAUAUGAUAAAGAAAAGAAAAGAAAGAAGAAUCAGAAGGCACAAAGG [salish99-ex1_r3_031] (puzzle: Exclusion 1)”, the “apparent KD of MS2 coat protein” value came out at 129 nM under setting [2], 51 nM under setting [3] and 54 nM under setting [4].
The corresponding values for “AAGAAACAUGAGGAUCACCCAUGUGAGGAUAUGAUCAAGAAAAGAAAAGAAAGAAGAAUCAGAAGGCACAAAGG [salish99-ex1_r3_044] (puzzle: Exclusion 1)” are 295 nM, 176 nM and 342 nM.
Consider “AAGAAACAUGAGGAUCACCCAUGUGAGGAUAUGAUCAAGAAAAGAAAAGAAAGAAGAGUCAGAAGGCACAAAGG [salish99-ex1_r3_065] (puzzle: Exclusion 1)”, for which the “apparent KD of MS2 coat protein” value turned out to be 282 nM under setting [2], 291 nM under setting [3] and 418 nM under setting [4].
On to “AAGAAACAUGAGGAUCACCCAUGUGAGGAUAUGAUGAAGAAAAGAAAAGAAAGAAGAUUCAGAAGGCACAAAGG [salish99-ex1_r3_055] (puzzle: Exclusion 1)”, for which the “apparent KD of MS2 coat protein” value under setting [2] was 113 nM, the “apparent KD of MS2 coat protein” value under setting [3] worked out at 48.9 nM and the “apparent KD of MS2 coat protein” value under setting [4] amounted to 80.5 nM.
The corresponding values for “AAGAAACGAGGAUAUACAAUUAAGUGAGAGAGGGAAAUGUGACAUGAGGAUCACCCAUGUAGAAGGCGUAAGAG [JR_Exclu2_Sub084] (puzzle: Exclusion 2)” are 66.2 nM, 44.2 nM and 53.5 nM.
As to “AAGAAACGAGGAUAUACAAUUGAGUGAGAGAGGGAAGUGUGACAUGAGGAUCACCCAUGUAGAAGGCGUAAGAG [JR_Exclu2_Sub085] (puzzle: Exclusion 2)”, the “apparent KD of MS2 coat protein” value was determined as 124 nM under setting [2], 79.5 nM under setting [3] and 73.9 nM under setting [4].
Turning to “AAGAAACGGCAGGAUAUCCAGUCGAGAGAAAUAGGAGAAGGGCCAACAUGAGGAUCACCCAUGUCGGUGGCCUC [Rariinon] (Eterna round: R97, puzzle: Exclusion 6)”, the “apparent KD of MS2 coat protein” value (input ligand: FMN 200 uM) turned out to be 145 nM and the “apparent KD of MS2 coat protein” value (input ligand: none) came to 78.5 nM.
In the case of “AAGAAGAAGUAAGGAUAUGAAGAUCUGGUGGUGACAUGAGGAUCACCCAUGUGAAAACAAUAAGAUCAGAAGGUAUAAGAAGAA [AK ExNG2-3.1] (Eterna round: R96, puzzle: Exclusion NG 2)”, the “apparent KD of MS2 coat protein” value stood at 81 nM (input ligand: FMN 200 uM), 70.4 nM under setting [1] and 87.9 nM (input ligand: none).
On to “AAGAUACAUGAGGAUCACCCAUGUGAGGAUAUGAGUCAGUCACGGUGACGUGGCUGACUCAGAAGGCACAAAGG [JL-ex1-4.36 salish99 mod] (Eterna round: R97, puzzle: Exclusion 1)”, for which the “apparent KD of MS2 coat protein” value runs as follows: (input ligand: FMN 200 uM) 176 nM; (input ligand: none) 110 nM.
As to “AAGAUGCGGGUAGGAUAUGGAGAGAAAGAAAGACCAGAAGGACUGGUCACACAACAUGAGGAUCACCCAUGUGUGUGUUGCGAA [EX ng 1 6] (Eterna round: R96, puzzle: Exclusion NG 1)”, the “apparent KD of MS2 coat protein” value under setting [1] was found to be 8.52 nM.
As for “AAGCUGUCAGGAUAUCGUUAAUUUAGUUGUUUGUAUUAGUUCGAGAAGGGACAUGAGGAUCACCCAUGUAUGAA [Ex4 #41] (Eterna round: R97, puzzle: Exclusion 4)”, the “apparent KD of MS2 coat protein” value (input ligand: FMN 200 uM) was found to be 62.7 nM and the “apparent KD of MS2 coat protein” value (input ligand: none) amounted to 31 nM.
Turning to “AAGGAGUUAGGAUAUCGAAGAAGAAGAAGAAGAAGAAGAAGCGAGAAGGAACAUGAGGAUCACCCAUGUAAGAA [JR_Exclu4_Sub028] (puzzle: Exclusion 4)”, the “apparent KD of MS2 coat protein” value reads like this: under setting [2], 32.5 nM; under setting [3], 50.5 nM; under setting [4], 41.5 nM.
In the case of “AAGGAUAGAGGAUAUACAUAGAUACAGAUUCAUGUAGUCCUACAUGAGGAUCACCCAUGUAGAAGGCUAUCCUA [Fiskers Ex 2 - 12] (Eterna round: R96, puzzle: Exclusion 2)”, the “apparent KD of MS2 coat protein” value is 103 nM (input ligand: FMN 200 uM), 14.3 nM under setting [1] and 18.7 nM (input ligand: none).
For the sequence “AAGGAUAGAGGAUAUACAUAGAUACAGAUUCAUGUAGUCCUACAUGAGGAUCACCCAUGUAGAAGGCUAUCCUA [Fiskers Ex 2 - 12] (puzzle: Exclusion 2)”, the “apparent KD of MS2 coat protein” value under setting [3] was 15.7 nM.
Take “AAGGCGUCAGGAUAUCCAAUAUAUGACAUGAGGAUCACCCAUGUUUCCACUCGUACCUCCGGAGAAGGGACAAAUA [Ex5 #87] (Eterna round: R97, puzzle: Exclusion 5)”: the “apparent KD of MS2 coat protein” value by setting is: (input ligand: FMN 200 uM) 35.6 nM; (input ligand: none) 38 nM.
Regarding “AAGGGUGCCCUUAGAAAGACAUGAGGAUCACCCAUGUAGACUGAGGAUAUCCACUCCUAAGGACCGGAGAAGGCAGUGUAAUGC [Qubion] (Eterna round: R96, puzzle: Exclusion NG 3)”, the “apparent KD of MS2 coat protein” value reads like this: (input ligand: FMN 200 uM) 16.9 nM; under setting [1], 13.8 nM; (input ligand: none) 18.2 nM.
“AAGGGUGCCUUUAGAACGACAUGAGGAUCACCCAUGUAGACUGAGGAUAUCUACUCCUAAGGACCGGAGAAGGCAGUGUAAUGC [Ex NG3 #63] (Eterna round: R96, puzzle: Exclusion NG 3)”: the “apparent KD of MS2 coat protein” value was determined as 72.1 nM (input ligand: FMN 200 uM), 41.4 nM under setting [1] and 58.9 nM (input ligand: none).
For “AAGGUACGAGGAUAUACAUAGAUACAGACACAUGUGCAUGUACAUGAGGAUCACCCAUGUAGAAGGCGUAUAUA [AJ 18] (Eterna round: R96, puzzle: Exclusion 2)”, the “apparent KD of MS2 coat protein” value (input ligand: FMN 200 uM) was determined as 248 nM, the “apparent KD of MS2 coat protein” value under setting [1] came out at 50.2 nM and the “apparent KD of MS2 coat protein” value (input ligand: none) worked out at 51.8 nM.
